# T1: Human BCMA (human, UniProt Q02223 1-54, limits assumed)
# T1 construct: also called huBCMA; B-cell maturation antigen
# T1 sequence (looked up): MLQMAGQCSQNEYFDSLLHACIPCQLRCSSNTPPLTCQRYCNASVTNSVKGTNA
# Legend:
# Human BCMA = biological target: T1, Human BCMA; test: SPR, IgG immobilised, human BCMA analyte
# Procedure: (§1) All experiments were performed on a Bio-Rad Proteon XPR36 surface Plasmon resonance biosensor (Bio-Rad, Hercules, Calif.). […] The analysis temperature for the immobilization was 25° C. and the running buffer was HBS-T+(10 mM HEPES, 150 mM NaCl, 0.05% Tween-20, pH 7.4). Channels were activated in the analyte (horizontal) direction by injecting a mixture of 1 mM ECD and 0.25 mM NHS for 3 minutes at a flow rate of 30 μL/min. IgGs were immobilized on the activated spots by injecting them in the ligand (vertical) direction at 20 μg/mL in 10 mM Acetate pH 4.5 buffer for 1.5 minutes at […]. The activated surfaces were blocked by injecting 1M ethanolamine, pH 8.5 in the analyte direction for 3 minutes at 30 μL/min.
# (§2) The analysis temperature for the BCMA binding analysis was 37° C. or 25° C. in a running buffer of HBS-T+, supplemented with 1 mg/mL BSA. A kinetic titration method was employed for the interaction analysis as described in Abdiche, et al. Human BCMA (huBCMA) or cynomolgus monkey BCMA (cyBCMA) analyte was injected in the analyte direction using a series of injections from low to high concentration. The concentrations used were 0.08 nM, 0.4 nM, 2 nM, 10 nM and 50 nM (a 5-membered series, with a 5-fold dilution factor and top concentration of 50 nM). The association time for a given analyte dilution was two minutes. Immediately after the 50 nM BCMA injection, dissociation was monitored for 2 hours.
# (§3) The sensorgrams were double-referenced and fit to a 1:1 Langmuir with mass transport kinetic titration model in BIAevaluation Software version 4.1.1 (GE Lifesciences, Piscataway, N.J.).
# Cynomolgus monkey BCMA = biological target: T2, Cynomolgus monkey BCMA (cynomolgus monkey); test: SPR, IgG immobilised, cyno BCMA analyte
# T2 construct: Soluble analyte in SPR; also called cyBCMA; Cyno BCMA
# Procedure: as §1, §2, §3
binder,measurement,setting,value
"A02_Rd4_0.6nM_C26 (antibody, V domains shown, IgG) VH: EVQLLESGGGLVQPGGSLRLSCAASGFTFSSYAMNWVRQAPGKGLEWVSAILMSGGSTYYADSVKGRFTISRDNSKNTLYLQMNSLRAEDTAVYYCARYWPMSLWGQGTLVTVSS VL: EIVLTQSPGTLSLSPGERATLSCGPSQSVSSSYLAWYQQKPGQAPRLLMYDASIRATGIPDRFSGSGSGTDFTLTISRLEPEDFAVYYCQQYQSWPLTFGQGTKVEIK",Kd,Human BCMA,0.061 nM
same,koff,Human BCMA,0.000443 s⁻¹
same,kon,Human BCMA,7.26e+06 M⁻¹ s⁻¹
same,Kd,Cynomolgus monkey BCMA,0.941 nM
same,koff,Cynomolgus monkey BCMA,0.00256 s⁻¹
same,kon,Cynomolgus monkey BCMA,2.71e+06 M⁻¹ s⁻¹
"A02_Rd4_6nM_C07 (antibody, V domains shown, IgG) VH: EVQLLESGGGLVQPGGSLRLSCAASGFTFSSYAMNWVRQAPGKGLEWVSAIGGSGGSLPYADSVKGRFTISRDNSKNTLYLQMNSLRAEDTAVYYCARYWPMDSWGQGTLVTVSS VL: EIVLTQSPGTLSLSPGERATLSCRASQSVSPYYLAWYQQKPGQAPRLLMYDASIRATGIPDRFSGSGSGTDFTLTISRLEPEDFAVYYCQQYERWPLTFGQGTKVEIK",Kd,Human BCMA,0.128 nM
same,koff,Human BCMA,0.000189 s⁻¹
same,kon,Human BCMA,1.48e+06 M⁻¹ s⁻¹
same,Kd,Cynomolgus monkey BCMA,1.14 nM
same,koff,Cynomolgus monkey BCMA,0.000786 s⁻¹
same,kon,Cynomolgus monkey BCMA,691000 M⁻¹ s⁻¹
"A02_Rd4_6nM_C03 (antibody, V domains shown, IgG) VH: EVQLLESGGGLVQPGGSLRLSCAASGFTFSSYAMNWVRQAPGKGLEWVSAISDSGGSTYYADSVKGRFTISRDNSKNTLYLQMNSLRAEDTAVYYCARYWPMDIWGQGTLVTVSS VL: EIVLTQSPGTLSLSPGERATLSCRASQSVSNLYLAWYQQKPGQAPRLLMYDASIRATGIPDRFSGSGSGTDFTLTISRLEPEDFAVYYCQQYQGWPLTFGQGTKVEIK",Kd,Human BCMA,0.075 nM
same,koff,Human BCMA,0.000126 s⁻¹
same,kon,Human BCMA,1.69e+06 M⁻¹ s⁻¹
same,Kd,Cynomolgus monkey BCMA,0.158 nM
same,koff,Cynomolgus monkey BCMA,0.000185 s⁻¹
same,kon,Cynomolgus monkey BCMA,1.17e+06 M⁻¹ s⁻¹
"A02_Rd4_6nM_C05 (antibody, V domains shown, IgG) VH: EVQLLESGGGLVQPGGSLRLSCAASGFTFSSYAMNWVRQAPGKGLEWVSAIFASGGSTYYADSVKGRFTISRDNSKNTLYLQMNSLRAEDTAVYYCARYWPMTPWGQGTLVTVSS VL: EIVLTQSPGTLSLSPGERATLSCRASQSVSSSYLAWYQQKPGQAPRLLMYDASIRATGIPDRFSGSGSGTDFTLTISRLEPEDFAVYYCQQYQRWPLTFGQGTKVEIK",Kd,Human BCMA,0.099 nM
same,koff,Human BCMA,0.000308 s⁻¹
same,kon,Human BCMA,3.1e+06 M⁻¹ s⁻¹
same,Kd,Cynomolgus monkey BCMA,0.95 nM
same,koff,Cynomolgus monkey BCMA,0.00129 s⁻¹
same,kon,Cynomolgus monkey BCMA,1.36e+06 M⁻¹ s⁻¹
"A02_Rd4_6nM_C01 (antibody, V domains shown, IgG) VH: EVQLLESGGGLVQPGGSLRLSCAASGFTFSSYAMNWVRQAPGKGLEWVSAITASGGSTYYADSVKGRFTISRDNSKNTLYLQMNSLRAEDTAVYYCARYWPMSLWGQGTLVTVSS VL: EIVLTQSPGTLSLSPGERATLSCRASQSVSAYYLAWYQQKPGQAPRLLMYDASIRATGIPDRFSGSGSGTDFTLTISRLEPEDFAVYYCQQYERWPLTFGQGTKVEIK",Kd,Human BCMA,0.03 nM
same,koff,Human BCMA,9.2e-05 s⁻¹
same,kon,Human BCMA,3.11e+06 M⁻¹ s⁻¹
same,Kd,Cynomolgus monkey BCMA,0.401 nM
same,koff,Cynomolgus monkey BCMA,0.000583 s⁻¹
same,kon,Cynomolgus monkey BCMA,1.45e+06 M⁻¹ s⁻¹
"A02_Rd4_6nM_C04 (antibody, V domains shown, IgG) VH: EVQLLESGGGLVQPGGSLRLSCAASGFTFSSYAMNWVRQAPGKGLEWVSAIMSSGGPLYYADSVKGRFTISRDNSKNTLYLQMNSLRAEDTAVYYCARYWPMALWGQGTLVTVSS VL: EIVLTQSPGTLSLSPGERATLSCRASQSVSALYLAWYQQKPGQAPRLLMYDASIRATGIPDRFSGSGSGTDFTLTISRLEPEDFAVYYCQQYQVWPLTFGQGTKVEIK",Kd,Human BCMA,0.135 nM
same,koff,Human BCMA,0.000603 s⁻¹
same,kon,Human BCMA,4.47e+06 M⁻¹ s⁻¹
same,Kd,Cynomolgus monkey BCMA,0.381 nM
same,koff,Cynomolgus monkey BCMA,0.000831 s⁻¹
same,kon,Cynomolgus monkey BCMA,2.18e+06 M⁻¹ s⁻¹
"A02_Rd4_6nM_C08 (antibody, V domains shown, IgG) VH: EVQLLESGGGLVQPGGSLRLSCAASGFTFSSYAMNWVRQAPGKGLEWVSAILDSGGSTYYADSVKGRFTISRDNSKNTLYLQMNSLRAEDTAVYYCARYWPMSPWGQGTLVTVSS VL: EIVLTQSPGTLSLSPGERATLSCRASQSVSFLYLAWYQQKPGQAPRLLMYDASIRATGIPDRFSGSGSGTDFTLTISRLEPEDFAVYYCQQYGSWPLTFGQGTKVEIK",Kd,Human BCMA,0.188 nM
same,koff,Human BCMA,0.000738 s⁻¹
same,kon,Human BCMA,3.92e+06 M⁻¹ s⁻¹
same,Kd,Cynomolgus monkey BCMA,5.07 nM
same,koff,Cynomolgus monkey BCMA,0.0113 s⁻¹
same,kon,Cynomolgus monkey BCMA,2.23e+06 M⁻¹ s⁻¹
